# Results: patent US20230406885A1, “CYCLIC PEPTIDES FOR TRAPPING INTERLEUKIN-1 BETA” (MERCK SHARP & DOHME LLC, priority 2022, published 2023)
# *1 amine or outer side, *2 acyl side, *3 side chain or, on linkers, in order; H or OH if unused. [ ]: non-standard residue; d: D form. TyrEtNAc = L-tyrosine O-ethyl acetamide, (S)-3-(4-(2-acetamidoethoxy)phenyl)-2-aminopropanoic acid, CC(=O)NCCOc1ccc(C[C@H](N[*:1])C(=O)[*:2])cc1; 3Pal4Ph4CO2H = (S)-4-(5-(2-amino-2-carboxyethyl)pyridin-2-yl)benzoic acid, O=C([C@H](Cc1ccc(-c2ccc(C(=O)[*:3])cc2)nc1)N[*:1])[*:2]; Pro(trans-4-NH2) = O=C([C@@H]1C[C@@H](N[*:3])CN1[*:1])[*:2]; Bip(4'-COOH) = N[C@@H](Cc1ccc(-c2ccc(C(=O)O)cc2)cc1)C(=O)O; 1Nal(3S-Me) = C[C@@H](c1cccc2ccccc12)[C@H](N)C(=O)O; hPhe(4-CF3) = N[C@@H](CCc1ccc(C(F)(F)F)cc1)C(=O)O; Phe(4-COOH) = N[C@@H](Cc1ccc(C(=O)O)cc1)C(=O)O; h3Pal(5-CN) = N#Cc1cncc(CC[C@H](N)C(=O)O)c1; Ala(4-THP) = N[C@@H](CC1CCOCC1)C(=O)O; hTyr = N[C@@H](CCc1ccc(O)cc1)C(=O)O; 4Pal = N[C@@H](Cc1ccncc1)C(=O)O; dDab = NCC[C@@H](N)C(=O)O; dNMeA = CN[C@H](C)C(=O)O; Dap = NC[C@H](N)C(=O)O; Aib = CC(C)(N)C(=O)O
# B1: SEQ ID NO: 105 (peptide)
# peptide: cyclo([TyrEtNAc]W[Phe(4-COOH)]G[Pro(trans-4-NH2)][1Nal(3S-Me)]D[dNMeA]G[Bip(4'-COOH)][4Pal]S[dA][hPhe(4-CF3)])
# SMILES: CC(=O)NCCOc1ccc(C[C@@H]2NC(=O)[C@H](CCc3ccc(C(F)(F)F)cc3)NC(=O)[C@@H](C)NC(=O)[C@H](CO)NC(=O)[C@H](Cc3ccncc3)NC(=O)[C@H](Cc3ccc(-c4ccc(C(=O)O)cc4)cc3)NC(=O)CNC(=O)[C@@H](C)N(C)C(=O)[C@H](CC(=O)O)NC(=O)[C@H]([C@@H](C)c3cccc4ccccc34)NC(=O)[C@@H]3C[C@@H](N)CN3C(=O)CNC(=O)[C@H](Cc3ccc(C(=O)O)cc3)NC(=O)[C@H](Cc3c[nH]c4ccccc34)NC2=O)cc1
# B2: SEQ ID NO: 106 (peptide)
# peptide: cyclo([TyrEtNAc]W[Phe(4-COOH)]G[Pro(trans-4-NH2)][1Nal(3S-Me)]D[dNMeA]G[Bip(4'-COOH)][Ala(4-THP)]G[dDab][h3Pal(5-CN)])
# SMILES: CC(=O)NCCOc1ccc(C[C@@H]2NC(=O)[C@H](CCc3cncc(C#N)c3)NC(=O)[C@@H](CCN)NC(=O)CNC(=O)[C@H](CC3CCOCC3)NC(=O)[C@H](Cc3ccc(-c4ccc(C(=O)O)cc4)cc3)NC(=O)CNC(=O)[C@@H](C)N(C)C(=O)[C@H](CC(=O)O)NC(=O)[C@H]([C@@H](C)c3cccc4ccccc34)NC(=O)[C@@H]3C[C@@H](N)CN3C(=O)CNC(=O)[C@H](Cc3ccc(C(=O)O)cc3)NC(=O)[C@H](Cc3c[nH]c4ccccc34)NC2=O)cc1
# B3: SEQ ID NO: 107 (peptide)
# peptide: cyclo([TyrEtNAc]W[Phe(4-COOH)]G[Pro(trans-4-NH2)][1Nal(3S-Me)]D[dNMeA]G[Bip(4'-COOH)]KG[Aib][hTyr])
# SMILES: CC(=O)NCCOc1ccc(C[C@@H]2NC(=O)[C@H](CCc3ccc(O)cc3)NC(=O)C(C)(C)NC(=O)CNC(=O)[C@H](CCCCN)NC(=O)[C@H](Cc3ccc(-c4ccc(C(=O)O)cc4)cc3)NC(=O)CNC(=O)[C@@H](C)N(C)C(=O)[C@H](CC(=O)O)NC(=O)[C@H]([C@@H](C)c3cccc4ccccc34)NC(=O)[C@@H]3C[C@@H](N)CN3C(=O)CNC(=O)[C@H](Cc3ccc(C(=O)O)cc3)NC(=O)[C@H](Cc3c[nH]c4ccccc34)NC2=O)cc1
# B4: SEQ ID NO: 108 (peptide)
# peptide: cyclo([TyrEtNAc]W[Phe(4-COOH)]G[Pro(trans-4-NH2)][1Nal(3S-Me)]D[dNMeA]G[Bip(4'-COOH)]KG[dA][hTyr])
# SMILES: CC(=O)NCCOc1ccc(C[C@@H]2NC(=O)[C@H](CCc3ccc(O)cc3)NC(=O)[C@@H](C)NC(=O)CNC(=O)[C@H](CCCCN)NC(=O)[C@H](Cc3ccc(-c4ccc(C(=O)O)cc4)cc3)NC(=O)CNC(=O)[C@@H](C)N(C)C(=O)[C@H](CC(=O)O)NC(=O)[C@H]([C@@H](C)c3cccc4ccccc34)NC(=O)[C@@H]3C[C@@H](N)CN3C(=O)CNC(=O)[C@H](Cc3ccc(C(=O)O)cc3)NC(=O)[C@H](Cc3c[nH]c4ccccc34)NC2=O)cc1
# B5: SEQ ID NO: 109 (peptide)
# peptide: cyclo([TyrEtNAc]W[Phe(4-COOH)]G[Pro(trans-4-NH2)][1Nal(3S-Me)]D[dNMeA]G[Bip(4'-COOH)]KG[dNMeA][hTyr])
# SMILES: CC(=O)NCCOc1ccc(C[C@@H]2NC(=O)[C@H](CCc3ccc(O)cc3)NC(=O)[C@@H](C)N(C)C(=O)CNC(=O)[C@H](CCCCN)NC(=O)[C@H](Cc3ccc(-c4ccc(C(=O)O)cc4)cc3)NC(=O)CNC(=O)[C@@H](C)N(C)C(=O)[C@H](CC(=O)O)NC(=O)[C@H]([C@@H](C)c3cccc4ccccc34)NC(=O)[C@@H]3C[C@@H](N)CN3C(=O)CNC(=O)[C@H](Cc3ccc(C(=O)O)cc3)NC(=O)[C@H](Cc3c[nH]c4ccccc34)NC2=O)cc1
# B6: SEQ ID NO: 11 (peptide)
# peptide: cyclo([3Pal4Ph4CO2H]W[Phe(4-COOH)]G[Pro(trans-4-NH2)][1Nal(3S-Me)]D[dNMeA]G[Bip(4'-COOH)]W[Dap][dA][hTyr])
# SMILES: C[C@@H]1C(=O)NCC(=O)N[C@@H](Cc2ccc(-c3ccc(C(=O)O)cc3)cc2)C(=O)N[C@@H](Cc2c[nH]c3ccccc23)C(=O)N[C@@H](CN)C(=O)N[C@H](C)C(=O)N[C@@H](CCc2ccc(O)cc2)C(=O)N[C@@H](Cc2ccc(-c3ccc(C(=O)O)cc3)nc2)C(=O)N[C@@H](Cc2c[nH]c3ccccc23)C(=O)N[C@@H](Cc2ccc(C(=O)O)cc2)C(=O)NCC(=O)N2C[C@H](N)C[C@H]2C(=O)N[C@@H]([C@@H](C)c2cccc3ccccc23)C(=O)N[C@@H](CC(=O)O)C(=O)N1C
# B7: SEQ ID NO: 110 (peptide)
# peptide: cyclo([TyrEtNAc]W[Phe(4-COOH)]G[Pro(trans-4-NH2)][1Nal(3S-Me)]D[dNMeA]G[Bip(4'-COOH)]KL[dA][hTyr])
# SMILES: CC(=O)NCCOc1ccc(C[C@@H]2NC(=O)[C@H](CCc3ccc(O)cc3)NC(=O)[C@@H](C)NC(=O)[C@H](CC(C)C)NC(=O)[C@H](CCCCN)NC(=O)[C@H](Cc3ccc(-c4ccc(C(=O)O)cc4)cc3)NC(=O)CNC(=O)[C@@H](C)N(C)C(=O)[C@H](CC(=O)O)NC(=O)[C@H]([C@@H](C)c3cccc4ccccc34)NC(=O)[C@@H]3C[C@@H](N)CN3C(=O)CNC(=O)[C@H](Cc3ccc(C(=O)O)cc3)NC(=O)[C@H](Cc3c[nH]c4ccccc34)NC2=O)cc1
# B8: SEQ ID NO: 111 (peptide)
# peptide: cyclo([TyrEtNAc]W[Phe(4-COOH)]G[Pro(trans-4-NH2)][1Nal(3S-Me)]D[dNMeA]G[Bip(4'-COOH)]KS[dA][hPhe(4-CF3)])
# SMILES: CC(=O)NCCOc1ccc(C[C@@H]2NC(=O)[C@H](CCc3ccc(C(F)(F)F)cc3)NC(=O)[C@@H](C)NC(=O)[C@H](CO)NC(=O)[C@H](CCCCN)NC(=O)[C@H](Cc3ccc(-c4ccc(C(=O)O)cc4)cc3)NC(=O)CNC(=O)[C@@H](C)N(C)C(=O)[C@H](CC(=O)O)NC(=O)[C@H]([C@@H](C)c3cccc4ccccc34)NC(=O)[C@@H]3C[C@@H](N)CN3C(=O)CNC(=O)[C@H](Cc3ccc(C(=O)O)cc3)NC(=O)[C@H](Cc3c[nH]c4ccccc34)NC2=O)cc1
# B9: SEQ ID NO: 112 (peptide)
# peptide: cyclo([TyrEtNAc]W[Phe(4-COOH)]G[Pro(trans-4-NH2)][1Nal(3S-Me)]D[dNMeA]G[Bip(4'-COOH)]KS[dA][hTyr])
# SMILES: CC(=O)NCCOc1ccc(C[C@@H]2NC(=O)[C@H](CCc3ccc(O)cc3)NC(=O)[C@@H](C)NC(=O)[C@H](CO)NC(=O)[C@H](CCCCN)NC(=O)[C@H](Cc3ccc(-c4ccc(C(=O)O)cc4)cc3)NC(=O)CNC(=O)[C@@H](C)N(C)C(=O)[C@H](CC(=O)O)NC(=O)[C@H]([C@@H](C)c3cccc4ccccc34)NC(=O)[C@@H]3C[C@@H](N)CN3C(=O)CNC(=O)[C@H](Cc3ccc(C(=O)O)cc3)NC(=O)[C@H](Cc3c[nH]c4ccccc34)NC2=O)cc1
# Target: Recombinant human IL-1β (BioLegend 579404) (human, UniProt P01584 117-269)
# Assay: cell-based or functional assay
row,Binder,MRC5 IC50 [nM]
1,B1,0.091
2,B2,0.0263
3,B3,0.0582
4,B4,0.102
5,B5,0.0775
6,B6,0.0908
7,B7,0.196
8,B8,0.133
9,B9,0.0617
